Reference: patent US20220153851A1 (Five Prime, published 2022)

Experiments:
[1] = biological target: T1, human CSF1R on CSF1R (SEQ ID NO: 2)-transfected CHO cells (human, UniProt P07333 20-972); test: cell-based or functional assay
cynoCSF1R ECD-Fc [2] = biological target: T2, cynoCSF1R ECD-Fc (cynomolgus); test: competition ELISA, blocking of human IL34 binding to cynoCSF1R ECD-Fc
T2 construct: also called cynomolgus CSF1R ECD

[3] = biological target: T1, human CSF1R on CSF1R (SEQ ID NO: …); test: cell-based or functional assay; remark: listed apart in the source
mCSF1R ECD-Fc = biological target: T3, mCSF1R ECD-Fc (mouse); test: ELISA, plate coated with mCSF1R ECD-Fc, detection anti-human kappa-HRP, A450
T3 construct: also called mouse CSF1R ECD
T3 sequence (chain, as listed by the source limits assumed): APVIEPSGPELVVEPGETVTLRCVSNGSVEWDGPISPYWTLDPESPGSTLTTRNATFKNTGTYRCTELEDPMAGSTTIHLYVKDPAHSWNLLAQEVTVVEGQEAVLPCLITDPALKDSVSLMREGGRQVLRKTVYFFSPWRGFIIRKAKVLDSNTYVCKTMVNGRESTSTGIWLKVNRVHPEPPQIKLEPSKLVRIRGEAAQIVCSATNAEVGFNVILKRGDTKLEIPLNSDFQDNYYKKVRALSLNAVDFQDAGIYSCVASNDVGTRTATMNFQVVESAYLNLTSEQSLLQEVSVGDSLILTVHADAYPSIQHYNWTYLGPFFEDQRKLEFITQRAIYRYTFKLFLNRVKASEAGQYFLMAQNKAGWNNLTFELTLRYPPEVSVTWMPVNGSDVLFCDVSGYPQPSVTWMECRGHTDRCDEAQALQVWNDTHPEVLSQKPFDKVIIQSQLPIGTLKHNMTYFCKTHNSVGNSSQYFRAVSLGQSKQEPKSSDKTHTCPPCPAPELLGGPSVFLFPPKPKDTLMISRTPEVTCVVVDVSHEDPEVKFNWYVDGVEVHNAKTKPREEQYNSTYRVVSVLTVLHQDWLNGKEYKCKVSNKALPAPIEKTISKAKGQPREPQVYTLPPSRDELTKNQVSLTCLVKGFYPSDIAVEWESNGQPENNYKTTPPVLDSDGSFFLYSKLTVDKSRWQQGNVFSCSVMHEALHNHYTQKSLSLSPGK
Experimental: (§1) Ninety-six well clear-bottom ELISA plates were coated overnight with 1 μg/ml recombinant hCSF1R ECD.506-Fc (SEQ ID NO: 6; FivePrime Therapeutics) or Human M-CSF R Fc Chimera (R&D Systems) in PBS. The next morning, wells were washed four times with 0.05% Tween20 in PBS (PBST) and blocked with Blocker-Blotto (Pierce). Fifty μl of 0.5× serial dilutions of the humanized antibody or parental chimeric antibody, beginning with 2000 ng/ml, diluted 1:1 in Blocker-Blotto were added to the CSF1R-coated wells. After incubation at room temperature (RT) for 90 min, wells were washed four times with PBST, and a 1:5000 dilution of a peroxidase-conjugated Goat anti-Human kappa Light chain antibody (Sigma) in Blocker-Blotto was added to each well. After incubation at RT for 60 min, wells were washed four times with PBST, and 50 μl o-phenylenediamine dihydrochloride peroxidase substrate (Sigma) was added to each well. After incubation at RT for 30 min, A450 values of each well were read directly on a SpectraMaxPlus spectrophotometer with SoftMaxPro software (Molecular Devices).
(§2) The binding curve for each humanized antibody binding to mouse CSF1R ECD was determined as described above for human CSF1R, except the wells of the clear-bottom ELISA plates were coated overnight with 2 μg/ml recombinant mCSF1R ECD-Fc (FivePrime Therapeutics, SEQ ID NO: 93).

cynoCSF1R ECD-Fc [4] = biological target: T2, cynoCSF1R ECD-Fc; test: competition ELISA, blocking of human CSF1 binding to cynoCSF1R ECD-Fc; blocking of human CSF1 binding to cynoCSF1R ECD
Experimental: (§3) The humanized antibodies, along with the parental chimeric antibodies (cAbs), were tested for their ability to block human CSF1 binding to human and cynomolgus CSF1R ECD, as follows.
Recombinant Human CSF1 (M-CSF; R&D Systems) was biotinylated using an NH₂-Biotin Labeling Kit (Dojindo Molecular Technologies). One hundred μl of 1 μg/ml biotinylated CSF1 in PBST/0.1% BSA was added to the wells of Reacti-Bind Streptavidin coated plates (Pierce) pre-blocked with SuperBlock blocking buffer (Pierce) according to the manufacturer's instructions. Fifty μl of 0.5× serial dilutions of the humanized antibody or parental chimeric antibody, beginning with 2000 ng/ml, was incubated with 50 ng/ml hCSF1R ECD.506-Fc (SEQ ID NO: 6; FivePrime Therapeutics) or 50 ng/ml cynoCSF1R ECD-Fc (FivePrime Therapeutics, SEQ ID NO: 8, but without the 19 amino acid leader sequence) in 100 μl PBST/0.1% BSA for 90 min at RT, after which the admix was transferred to one or more wells of a ligand-coated plate. After 90 min at RT, wells were washed with PBST, and a 1:5000 dilution of an Fc-fragment-specific peroxidase-conjugated goat anti-human IgG (Jackson Immuno Research) in PBST/0.1% BSA was added to each well. […] After incubation at RT for 30 min, A450 values of each well were read directly on a SpectraMaxPlus spectrophotometer with SoftMaxPro software (Molecular Devices).

cynoCSF1R ECD-Fc [5] = biological target: T2, cynoCSF1R ECD-Fc; test: ELISA, plate coated with cynoCSF1R ECD-Fc
Experimental: as §1
as §2, with “cynomolgus” for “mouse”, “cynoCSF1R” for “mCSF1R”, “8, but without the 19 amino acid leader sequence).” for “93).”

hCSF1R ECD.506-Fc = biological target: T4, hCSF1R ECD.506-Fc (human); test: ELISA, plate coated with human CSF1R ECD-Fc
T4 construct: also called human CSF1R ECD-Fc fusion protein; human CSF1R ECD
T4 sequence (chain, as listed by the source limits assumed): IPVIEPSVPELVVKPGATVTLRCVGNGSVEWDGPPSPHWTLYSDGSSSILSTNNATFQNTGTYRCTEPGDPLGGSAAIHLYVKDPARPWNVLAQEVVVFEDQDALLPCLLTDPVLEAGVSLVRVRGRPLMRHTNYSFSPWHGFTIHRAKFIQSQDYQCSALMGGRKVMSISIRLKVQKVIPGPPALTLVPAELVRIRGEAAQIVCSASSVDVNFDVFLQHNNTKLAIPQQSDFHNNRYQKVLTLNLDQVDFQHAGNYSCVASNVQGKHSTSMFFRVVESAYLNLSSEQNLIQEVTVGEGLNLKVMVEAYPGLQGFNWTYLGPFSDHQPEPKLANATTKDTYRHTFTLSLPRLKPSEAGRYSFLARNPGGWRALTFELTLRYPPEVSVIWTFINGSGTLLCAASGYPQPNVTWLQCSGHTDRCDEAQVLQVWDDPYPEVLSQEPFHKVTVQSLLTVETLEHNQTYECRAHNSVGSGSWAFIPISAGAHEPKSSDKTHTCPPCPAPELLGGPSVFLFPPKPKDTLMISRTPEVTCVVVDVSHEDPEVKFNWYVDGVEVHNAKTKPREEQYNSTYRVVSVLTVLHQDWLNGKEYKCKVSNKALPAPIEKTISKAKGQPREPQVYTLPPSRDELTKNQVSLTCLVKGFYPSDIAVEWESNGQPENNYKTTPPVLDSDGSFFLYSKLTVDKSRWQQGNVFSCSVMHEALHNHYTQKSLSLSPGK
Experimental: as §1

[6] = biological target: T1, human CSF1R on CSF1R (SEQ ID NO: …); test: cell-based or functional assay; remark: listed apart in the source
cynoCSF1R ECD-Fc [7] = biological target: T2, cynoCSF1R ECD-Fc; test: competition ELISA, blocking of human CSF1 binding to cynoCSF1R ECD-Fc
Experimental: as §3
Recombinant Human CSF1 (M-CSF; R&D Systems) was biotinylated using an NH₂-Biotin Labeling Kit (Dojindo Molecular Technologies). One hundred μl of 1 μg/ml biotinylated CSF1 in PBST/0.1% BSA was added to the wells of Reacti-Bind Streptavidin coated plates (Pierce) pre-blocked with SuperBlock blocking buffer (Pierce) according to the manufacturer's instructions. Fifty μl of 0.5× serial dilutions of the humanized antibody or parental chimeric antibody, beginning with 2000 ng/ml, was incubated with 50 ng/ml hCSF1R ECD.506-Fc (SEQ ID NO: 6; FivePrime Therapeutics) or 50 ng/ml cynoCSF1R ECD-Fc (FivePrime Therapeutics, SEQ ID NO: 8, but without the 19 amino acid leader sequence) in 100 μl PBST/0.1% BSA for 90 min at RT, after which the admix was transferred to one or more wells of a ligand-coated plate. After 90 min at RT, wells were washed with PBST, and a 1:5000 dilution of an Fc-fragment-specific peroxidase-conjugated goat anti-human IgG (Jackson Immuno Research) in PBST/0.1% BSA was added to each well. After incubation at RT for 60 min, wells were washed with PBST/0.1% BSA, and o-phenylenediamine dihydrochloride peroxidase substrate (Sigma) was added to each well. After incubation at RT for 30 min, A450 values of each well were read directly on a SpectraMaxPlus spectrophotometer with SoftMaxPro software (Molecular Devices).

[8] = biological target: T1, human CSF1R on CSF1R (SEQ ID NO: …); test: cell-based or functional assay; remark: listed apart in the source
hCSF1R ECD.506 = biological target: T5, hCSF1R ECD.506 (human, UniProt P07333 20-506); test: SPR Biacore T100, antibody captured on anti-human IgG, hCSF1R ECD.506 as analyte, 1:1 model
T5 construct: also called human CSF1R ECD
T5 sequence (P07333 20-506): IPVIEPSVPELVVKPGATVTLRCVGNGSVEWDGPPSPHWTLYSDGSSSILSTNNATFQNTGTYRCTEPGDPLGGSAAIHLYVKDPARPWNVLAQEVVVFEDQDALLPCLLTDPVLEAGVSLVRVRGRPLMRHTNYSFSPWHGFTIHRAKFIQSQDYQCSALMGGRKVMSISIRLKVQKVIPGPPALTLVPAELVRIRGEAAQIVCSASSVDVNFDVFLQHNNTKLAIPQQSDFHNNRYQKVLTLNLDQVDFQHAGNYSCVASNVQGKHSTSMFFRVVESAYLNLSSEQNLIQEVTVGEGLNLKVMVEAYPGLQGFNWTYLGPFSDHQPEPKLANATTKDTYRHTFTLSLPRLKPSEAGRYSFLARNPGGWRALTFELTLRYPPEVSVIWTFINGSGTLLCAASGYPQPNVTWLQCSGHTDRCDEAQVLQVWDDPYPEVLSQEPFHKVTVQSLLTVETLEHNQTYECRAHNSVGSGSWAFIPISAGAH
Experimental: The kₐ, kd, and KD for binding to human CSF1R ECD was determined for each of the humanized antibodies as follows.
Binding kinetics of anti-CSF1R humanized antibodies to CSF1R ECD was determined using Biacore T100 Surface Plasmon Resonance (SPR) (GE Healthcare Life Sciences, Piscataway, N.Y.). Each of the humanized anti-CSF1R antibodies was captured on a CM5 sensor chip immobilized with anti-Human IgG antibody using the Human antibody capture kit (GE Healthcare Life Sciences, Piscataway, N.Y.) at 150 RU so that the Rmax value for hCSF1R ECD.506 (SEQ ID NO: 5) binding was 100 RU. Rmax values of less than 150 RU are recommended for accurately determining kinetic values. […] The association constant, dissociation constant, affinity, and binding capacity of each of the Fabs for human CSF1R ECD was calculated using the Biacore T100 Evaluation software package using the 1:1 binding model.

T1 sequence (P07333 20-972): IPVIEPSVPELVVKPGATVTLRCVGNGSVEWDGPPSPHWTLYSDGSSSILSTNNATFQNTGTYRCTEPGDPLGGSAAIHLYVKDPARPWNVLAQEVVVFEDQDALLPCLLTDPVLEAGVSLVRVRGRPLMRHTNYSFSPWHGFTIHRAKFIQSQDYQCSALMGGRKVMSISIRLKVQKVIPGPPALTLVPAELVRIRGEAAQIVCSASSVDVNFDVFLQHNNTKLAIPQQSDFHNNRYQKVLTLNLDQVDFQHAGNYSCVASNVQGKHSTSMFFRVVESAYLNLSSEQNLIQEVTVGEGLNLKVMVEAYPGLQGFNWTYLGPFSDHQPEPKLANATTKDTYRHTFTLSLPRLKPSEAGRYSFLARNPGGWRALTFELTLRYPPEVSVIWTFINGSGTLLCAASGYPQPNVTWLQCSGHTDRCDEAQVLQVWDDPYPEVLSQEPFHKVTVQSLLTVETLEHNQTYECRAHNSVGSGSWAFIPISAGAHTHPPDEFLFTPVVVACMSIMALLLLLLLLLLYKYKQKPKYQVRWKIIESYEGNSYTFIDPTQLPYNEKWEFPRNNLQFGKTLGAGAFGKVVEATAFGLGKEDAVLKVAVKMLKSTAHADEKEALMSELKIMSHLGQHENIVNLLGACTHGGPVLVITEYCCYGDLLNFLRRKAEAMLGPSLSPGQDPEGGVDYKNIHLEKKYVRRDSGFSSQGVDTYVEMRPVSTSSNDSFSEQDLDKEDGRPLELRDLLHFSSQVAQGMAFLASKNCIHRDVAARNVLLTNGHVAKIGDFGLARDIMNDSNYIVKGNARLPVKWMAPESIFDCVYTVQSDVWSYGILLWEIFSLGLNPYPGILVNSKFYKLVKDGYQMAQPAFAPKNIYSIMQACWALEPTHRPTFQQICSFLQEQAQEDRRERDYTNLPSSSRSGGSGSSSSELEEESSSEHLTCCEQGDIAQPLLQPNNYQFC
T2 sequence (chain, as listed by the source): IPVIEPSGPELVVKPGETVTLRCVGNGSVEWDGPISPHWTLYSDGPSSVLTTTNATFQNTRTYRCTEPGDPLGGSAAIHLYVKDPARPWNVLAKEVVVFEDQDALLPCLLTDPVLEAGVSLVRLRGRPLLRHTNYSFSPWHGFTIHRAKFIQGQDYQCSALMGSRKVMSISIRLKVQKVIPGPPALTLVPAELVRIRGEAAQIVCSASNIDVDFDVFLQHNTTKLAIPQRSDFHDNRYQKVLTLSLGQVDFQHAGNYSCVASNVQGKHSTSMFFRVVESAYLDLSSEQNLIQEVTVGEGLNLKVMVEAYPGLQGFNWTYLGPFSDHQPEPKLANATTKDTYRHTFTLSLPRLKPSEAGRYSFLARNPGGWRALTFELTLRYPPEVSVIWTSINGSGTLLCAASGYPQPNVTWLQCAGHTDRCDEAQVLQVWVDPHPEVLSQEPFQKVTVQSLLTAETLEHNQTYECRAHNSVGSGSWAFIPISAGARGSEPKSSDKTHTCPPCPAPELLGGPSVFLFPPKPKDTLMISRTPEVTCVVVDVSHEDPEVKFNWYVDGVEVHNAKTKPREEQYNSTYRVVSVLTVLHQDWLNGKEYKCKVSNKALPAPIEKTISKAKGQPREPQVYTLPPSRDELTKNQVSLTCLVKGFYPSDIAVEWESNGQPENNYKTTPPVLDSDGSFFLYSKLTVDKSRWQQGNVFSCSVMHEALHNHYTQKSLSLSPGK

Binder | IC50, inhibition of CSF1-induced CSF1R phosphorylation (head prints 'Human CSF1/Human CSF1R ECD IC50') [1] [µg/mL] | IC50, inhibition of IL34-induced CSF1R phosphorylation (head prints 'Human IL34/Human CSF1R ECD IC50') [1] [µg/mL] | IC50 (cynoCSF1R ECD-Fc [2]) [µg/mL] | IC50 (read off the curve), CSF1-induced CSF1R phosphorylation [3] [µg/mL] | binding result (mCSF1R ECD-Fc) | IC50 (cynoCSF1R ECD-Fc [4]) [µg/mL] | EC50 (cynoCSF1R ECD-Fc [5]) [µg/mL] | EC50 (hCSF1R ECD.506-Fc) [µg/mL] | IC50 (read off the curve), IL34-induced CSF1R phosphorylation [6] [µg/mL] | IC50 (cynoCSF1R ECD-Fc [7]) [µg/mL] | CSF1 blocking IC50 (ligand-induced CSF1R phosphorylation in CHO cells) [8] [µg/mL] | IL34 blocking IC50 (ligand-induced CSF1R phosphorylation in CHO cells) [8] [µg/mL] | Kd (hCSF1R ECD.506) [nM] | koff (hCSF1R ECD.506) [s⁻¹] | kon (hCSF1R ECD.506) [M⁻¹ s⁻¹]
cAb 0301 (antibody, human IgG4 S228P, kappa, V domains shown) VH: EVQLQQSGPELVRPGASVKMSCKASGYTFTDNYMIWVKQSHGKSLEWIGDINPYNGGTTFNQKFKGKATLTVEKSSSTAYMQLNSLTSEDSAVYYCARESPYFSNLYVMDYWGQGTSVTVSS VL: NIVLTQSPASLAVSLGQRATISCKASQSVDYDGDNYMNWYQQKPGQPPKLLIYAASNLESGIPARFSGSGSGTDFTLNIHPVEEEDAATYYCHLSNEDLSTFGGGTKLEIKR | 0.307 | 0.312 | 0.0295 | ~0.3 | no binding (tested: 2000 ng/ml) | 0.022 | 0.0152 | 0.0114 | – | – | – | – | – | – | –
cAb 0311 (antibody, human IgG4 S228P, kappa, V domains shown) VH: EIQLQQSGPDLMKPGASVKMSCKASGYIFTDYNMHWVKQNQGKSLEWMGEINPNNGVVVYNQKFKGTTTLTVDKSSSTAYMDLHSLTSEDSAVYYCTRALYHSNFGWYFDSWGKGTTLTVSS VL: DIVLTQSPASLAVSLGQRATISCKASQSVDYDGDSHMNWYQQKPGQPPKLLIYTASNLESGIPARFSGSGSGADFTLTIHPVEEEDAATYYCQQGNEDPWTFGGGTRLEIKR | 0.577 | 0.994 | 0.0521 | – | no binding (tested: 2000 ng/ml) | – | 0.0201 | 0.0176 | ~1 | 0.0435 | – | – | – | – | –
h0311-L0H1 (antibody, human IgG4 S228P, kappa, V domains shown, also called Ab13; huAb 0311-L0H1) VH: QVQLVQSGAEVKKPGSSVKVSCKASGYIFTDYNMHWVRQAPGQGLEWMGEINPNNGVVVYNQKFKGRVTITVDKSTSTAYMELSSLRSEDTAVYYCTRALYHSNFGWYFDSWGQGTLVTVSS VL: EIVLTQSPATLSLSPGERATLSCKASQSVDYDGDSHMNWYQQKPGQAPRLLIYTASNLESGIPARFSGSGSGTDFTLTISSLEPEDFAVYYCQQGNEDPWTFGQGTKVEIKR | 0.291 | 0.343 | 0.0504 | – | no binding (tested: 2000 ng/ml) | – | 0.0216 | 0.0131 | ~0.4 | 0.0325 | 0.127 | 0.338 | 0.44 | 0.00054 | 1.22e+06
h0311-L1H2 (antibody, human IgG4 S228P, kappa, V domains shown, also called Ab16; huAb 0311-L1H2) VH: QVQLVQSGAEVKKPGSSVKVSCKASGYIFTDYNMHWVRQAPGQGLEWMGEINPNNGVVVYNQKFKGTTTLTVDKSTSTAYMELSSLRSEDTAVYYCTRALYHSNFGWYFDSWGQGTLVTVSS VL: DIVLTQSPATLSLSPGERATLSCKASQSVDYDGDSHMNWYQQKPGQAPRLLIYTASNLESGIPARFSGSGSGADFTLTISSLEPEDFAVYYCQQGNEDPWTFGQGTKVEIKR | 0.419 | 0.578 | 0.0486 | – | no binding (tested: 2000 ng/ml) | – | 0.0203 | 0.0133 | ~0.6 | 0.0308 | – | – | 0.4 | 0.000609 | 1.51e+06
